Measured values from patent US20150361176A1 (GlaxoSmithKline, published 2015).
Where a chain is given by its changes, count along the chain named.

Assays:
[1] = target: T1, human TGF-βRII on cells (SBE-bla HEK 293T cells; A549 cells) (human, UniProt P37173 23-567); assay: cell-based or functional assay
[2] = target: T2, mouse TGF-βRII on MC3T3-E1 cells (mouse osteoblasts) (mouse, UniProt Q62312 24-567); assay: cell-based or functional assay
T2 sequence (looked up): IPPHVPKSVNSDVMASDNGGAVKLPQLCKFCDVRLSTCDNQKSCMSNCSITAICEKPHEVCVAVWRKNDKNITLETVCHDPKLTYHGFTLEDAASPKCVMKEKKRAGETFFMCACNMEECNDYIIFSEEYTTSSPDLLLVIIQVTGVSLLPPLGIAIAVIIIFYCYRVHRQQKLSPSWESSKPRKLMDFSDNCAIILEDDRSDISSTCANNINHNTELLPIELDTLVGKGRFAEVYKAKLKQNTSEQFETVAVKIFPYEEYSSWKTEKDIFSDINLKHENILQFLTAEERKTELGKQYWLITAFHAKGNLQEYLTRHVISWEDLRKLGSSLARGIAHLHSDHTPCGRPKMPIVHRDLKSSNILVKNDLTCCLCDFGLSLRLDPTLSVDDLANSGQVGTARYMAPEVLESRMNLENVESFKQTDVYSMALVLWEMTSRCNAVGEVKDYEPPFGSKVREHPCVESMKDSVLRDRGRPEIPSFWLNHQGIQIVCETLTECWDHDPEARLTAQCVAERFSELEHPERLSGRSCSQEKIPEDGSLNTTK

[3] = target: T1, human TGF-βRII on cells (SBE-bla HEK …); assay: cell-based or functional assay; remark: listed apart in the source
[4] = target: T1, human TGF-βRII on cells (SBE-bla HEK …); assay: cell-based or functional assay; remark: listed apart in the source
[5] = target: T3, recombinant human TGF-β RII/Fc chimera protein (human, UniProt P37173 24-159); assay: SPR Biacore, purified dAb; antigen taken as human TGF-β RII/Fc
T3 construct: range 24-159; Made in HEK-F cells; Biotinylated where it was put on SA chips, otherwise captured by anti-human IgG; also called human TGFbRII/Fc; hRII-Fc; not shown: Fc region of human IgG1
T3 sequence (P37173 24-159 limits assumed, change not shown): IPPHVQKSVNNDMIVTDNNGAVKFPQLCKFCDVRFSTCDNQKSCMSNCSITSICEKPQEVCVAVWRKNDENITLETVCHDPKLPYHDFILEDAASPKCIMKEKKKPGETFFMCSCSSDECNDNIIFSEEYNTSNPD

[6] = target: T3, recombinant human TGF-β RII/Fc chimera …; assay: SPR Biacore, against parent DOM23h-855
[7] = target: T3, recombinant human TGF-β RII/Fc chimera …; assay: SPR Biacore, against parent DOM23h-439
[8] = target: T3, recombinant human TGF-β RII/Fc chimera …; assay: SPR Biacore, against parent DOM23h-843
[9] = target: T3, recombinant human TGF-β RII/Fc chimera …; assay: SPR Biacore, human TGFbRII-FC, 1:1 model
[10] = target: T3, recombinant human TGF-β RII/Fc chimera …; assay: SPR Biacore
[11] = target: T4, cynomolgus TGF-β RII/Fc (cynomolgus); assay: SPR Biacore
T4 construct: extracellular domain; also called Cyno TGFBRII; Cyno TGFbRII

[12] = target: T1, human TGF-βRII on cells (SBE-bla HEK …); assay: cell-based or functional assay; remark: listed apart in the source
[13] = target: T2, mouse TGF-βRII on MC3T3-E1 cells (mouse …); assay: cell-based or functional assay; remark: listed apart in the source

T1 sequence (P37173 23-567): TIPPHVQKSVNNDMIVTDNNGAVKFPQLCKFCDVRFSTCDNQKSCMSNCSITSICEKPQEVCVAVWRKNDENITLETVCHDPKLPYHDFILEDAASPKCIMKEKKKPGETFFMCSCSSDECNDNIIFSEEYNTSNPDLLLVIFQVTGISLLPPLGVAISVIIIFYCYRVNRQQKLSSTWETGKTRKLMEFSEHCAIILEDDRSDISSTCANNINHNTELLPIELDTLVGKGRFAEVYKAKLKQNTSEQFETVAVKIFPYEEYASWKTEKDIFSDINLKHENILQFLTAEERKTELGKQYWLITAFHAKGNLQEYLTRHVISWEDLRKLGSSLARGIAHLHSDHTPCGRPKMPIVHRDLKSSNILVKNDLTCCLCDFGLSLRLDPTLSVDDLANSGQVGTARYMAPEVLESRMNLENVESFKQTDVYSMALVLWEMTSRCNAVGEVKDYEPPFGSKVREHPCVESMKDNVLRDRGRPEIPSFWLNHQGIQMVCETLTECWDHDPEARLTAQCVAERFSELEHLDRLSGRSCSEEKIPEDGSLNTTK

B1: DOM23m-101 (VHH, not shown: small tags and cut ends)
VHH: EVQLLESGGGLVQPGGSLRLSCAASGFTFSEYDMAWVRQAPGKGLEWVSRIRSDGVRTYYADSVKGRFTISRDNSKNTLYLQMNSLRAEDTAVYYCAKDRAKNGWFDYWGQGTLVTVSS
max % inhibition, Average (SBE-bla HEK CELLSENSOR assay, h2) [1]: 59.8%
max % inhibition, Average (Mouse 3T3 cell assay, method m2) [2]: 48%

B2: DOM23m-32 (VHH, not shown: small tags and cut ends)
VHH: EVQLLESGGGLVQPGGSLRLSCAASGFTFFEYPMGWVRQAPGKGLEWVSVISGDGQRTYYADSVKGRFTISRDNSKNTLYLQMNSLRAEDTAVYYCAKSHTGTVRHLETFDYWGQGTLVTVSS
max % inhibition, Average (Mouse 3T3 cell assay, method m1) [2]: 39.7%

B3: DOM23m-72 (VHH, not shown: small tags and cut ends)
VHH: EVQLLESGGGLVQPGGSLRLSCAASGFTFMDYDMSWVRQAPGKGLEWVSMIREDGGKTYYADSVKGRFTISRDNSKNTLYLQMNSLRAEDTAVYYCAKARVPYRRGHRDNFDYWGQGTLVTVSS
max % inhibition, Average (Human IL-11 release, h1) [1]: 1.7%
max % inhibition, Average (Mouse 3T3 cell assay, method m1) [2]: 17.5%

B4: DOM23m-29 (VHH, not shown: small tags and cut ends)
VHH: EVQLLESGGGLVQPGGSLRLSCAASGFTFKRYSMGWVRQAPGKGLEWVSVINDLGSLTYYADSVKGRFTISRDNSKNTLYLQMNSLRAEDTAVYYCAKGNISMVRPGSWFDYWGQGTLVTVSS
max % inhibition, Average (Mouse 3T3 cell assay, method m1) [2]: 54.2%

B5: DOM23h-855 (VHH)
VHH: EVQLLESGGGLVQPGGSLRLSCAASGFTFENTSMGWVRQAPGKGLEWVSRIDPKGSHTYYADSVKGRFTISRDNSKNTLYLQMNSLRAEDTAVYYCAKQRELGKSHFDYWGQGTLVTVSS
notes: human VH domain antibody (dAb), naive lead; parent of DOM23h-855-21; not shown: C-terminal FLAG tag from vector pDOM10
IC50 nM, Mean (SBE-bla HEK 293T cell sensor assay, h2) [3]: > 4470 nM
Mean IC50 (nM), SBE-bla HEK 293T Cell Sensor assay (h2) [4]: > 25000 nM
Kd [5]: 941 nM
koff [5]: 0.315 s⁻¹
kon [5]: 335000 M⁻¹ s⁻¹

B6: DOM23h-855-21 (VHH)
VHH: B5 VHH with A61T, H106Y
notes: human VH dAb, error-prone matured; expressed from pDOM13, tag not described
Mean IC50 (nM), SBE-bla HEK 293T Cell Sensor assay (h2) [4]: 18600 nM
KD Fold improvement [6]: 52.3 fold
ka Fold improvement [6]: 5.6 fold
kd Fold improvement [6]: 9.4 fold
Kd [5]: 18 nM
koff [5]: 0.0336 s⁻¹
kon [5]: 1.86e+06 M⁻¹ s⁻¹

B7: DOM23h-439 (VHH)
VHH: EVQLLESGGGLVQPGGSLRLSCAASGFTFGTEQMWWVRQAPGKGLEWVSRIDSPGGRTYYADSVKGRFTISRDNSKNTLYLQMNSLRAEDTAVYYCAKRHAAGVSGTYFDYWGQGTLVTVSS
Mean IC50 (nM), SBE-bla HEK 293T Cell Sensor assay (h2) [4]: 3570 nM
Kd [5]: 24.2 nM
koff [5]: 0.0502 s⁻¹
kon [5]: 2.08e+06 M⁻¹ s⁻¹

B8: DOM23h-439-20 (VHH)
VHH: B7 VHH with W47F
notes: as for B6
Mean IC50 (nM), SBE-bla HEK 293T Cell Sensor assay (h2) [4]: 48 nM
KD Fold improvement [7]: 30.3 fold
ka Fold improvement [7]: 2.1 fold
kd Fold improvement [7]: 14.2 fold
Kd [5]: 0.799 nM
koff [5]: 0.00354 s⁻¹
kon [5]: 4.43e+06 M⁻¹ s⁻¹

B9: DOM23m-4 (VHH, not shown: small tags and cut ends)
VHH: EVQLLESGGGLVQPGGSLRLSCAASGFTFTTYGMGWVRQAPGKGLEWVSWIEKTGNKTYYADSVKGRFTISRDNSKNTLYLQMNSLRAEDTAVYYCAKAGRHIKVRSRDFDYWGQGTLVTVSS
max % inhibition, Average (Human IL-11 release, h1) [1]: 70.7%
max % inhibition, Average (SBE-bla HEK CELLSENSOR assay, h2) [1]: 69%
max % inhibition, Average (Mouse 3T3 cell assay, method m1) [2]: 73.3%

B10: DOM23m-99 (VHH, not shown: small tags and cut ends)
VHH: EVQLLESGGGLVQPGGSLRLSCAASGFTFDRYRMMWVRQAPGKGLEWVSTIDPAGMLTYYADSVKGRFTISRDNSKNTLYLQMNSLRAEDTAVYYCAKRLASRSHFDYWGQGTLVTVSS
max % inhibition, Average (Mouse 3T3 cell assay, method m2) [2]: 46.5%

B11: DOM23m-71 (VHH, not shown: small tags and cut ends)
VHH: EVQLLESGGGLVQPGGSLRLSCAASGFTFMDYRMYWVRQAPGKGLEWVSGIDPTGLRTYYADSVKGRFTISRDNSKNTLYLQMNSLRAEDTAVYYCAKIKWGEMGSYKTFDYWGQGTLVTVSS
max % inhibition, Average (Human IL-11 release, h1) [1]: -2%
max % inhibition, Average (Mouse 3T3 cell assay, method m1) [2]: 44.9%

B12: DOM23h-843 (VHH)
VHH: EVQLLESGGGLVQPGGSLRLSCAASGFTFDQDRMWWVRQAPGKGLEWVSAIESGGHRTYYADSVKGRFTISRDNSKNTLYLQMNSLRAEDTAVYYCAKQNESGRSGFDYWGQGTLVTVSS
notes: human VH domain antibody (dAb), naive lead; parent of DOM23h-843-13; not shown: C-terminal FLAG tag from vector pDOM10
IC50 nM, Mean (SBE-bla HEK 293T cell sensor assay, h2) [3]: > 9010 nM
Mean IC50 (nM), SBE-bla HEK 293T Cell Sensor assay (h2) [4]: 1950 nM
Kd [5]: 378 nM
koff [5]: 0.343 s⁻¹
kon [5]: 905000 M⁻¹ s⁻¹

B13: DOM23h-843-13 (VHH)
VHH: B12 VHH with K98N, E101K
notes: as for B6
Mean IC50 (nM), SBE-bla HEK 293T Cell Sensor assay (h2) [4]: 540 nM
KD Fold improvement [8]: 91.7 fold
ka Fold improvement [8]: 5.6 fold
kd Fold improvement [8]: 16.2 fold
Kd [5]: 4.13 nM
koff [5]: 0.0211 s⁻¹
kon [5]: 5.11e+06 M⁻¹ s⁻¹

B14: DOM23h-271-21 (VHH)
VHH: EVQLLESGGGLVQPGGSLRLSCAASGFTFTEYRMWWVRQAPGKGLEWVSAIEPIGNRTYYADSVKGRFTISRDNSKNTLYLQMNSLRAEDTAVYYCAKQMPGRKWTAKFRWDYWGQGTLVIVSS
notes: human VH dAb from DNA display; expressed from pDOM13
Kd [9]: 0.147 nM
koff [9]: 0.000472 s⁻¹
kon [9]: 3.21e+06 M⁻¹ s⁻¹

B15: DOM23h-271-27 (VHH)
VHH: B14 VHH with N56Q, R57K, M100I, K108N, F109S, W111F
notes: as for B14
Kd [9]: 0.578 nM
koff [9]: 0.00126 s⁻¹
kon [9]: 2.17e+06 M⁻¹ s⁻¹

B16: DOM23h-271-22 (VHH)
VHH: B14 VHH with R103Q, T106M, F109S, W111F, I121T
notes: as for B14
Kd [10]: 0.202 nM
Kd [11]: 0.225 nM
Human Cell sensor IC50 [12]: 39 nM
Mouse 3T3 Luciferase assay IC50 [13]: > 17800 nM
Kd [9]: 0.286 nM
koff [9]: 0.000919 s⁻¹
kon [9]: 3.22e+06 M⁻¹ s⁻¹

B17: DOM23h-352 (VHH, not shown: small tags and cut ends)
VHH: EVQLLESGGGLVQPGGSLRLSCAASGFTFDKYKMAWVRQAPGKGLEWVSLIFPNGVPTYYANSVKGRFTISRDNSKNTLYLQMNSLRAEDTAVYYCAKYSGQGRDFDYWGQGTLVTVSS
max % inhibition, Average (SBE-bla HEK CELLSENSOR assay, h2) [1]: 46.7%
max % inhibition, Average (Mouse 3T3 cell assay, method m2) [2]: 48%

B18: DOM23m-81 (VHH, not shown: small tags and cut ends)
VHH: EVQLLESGGGLVQPGGSLRLSCAASGFTFEPVIMGWVRQAPGKGLEWVSAIEARGGGTYYADSVKGRFTISRDNSKNTLYLQMNSLRAEDTAVYYCAKPGRHLSQDFDYWGQGTLVTVSS
max % inhibition, Average (Mouse 3T3 cell assay, method m2) [2]: 30.3%

B19: DOM23m-62 (VHH, not shown: small tags and cut ends)
VHH: EVQLLESGGGLVQPGGSLRLSCAASGFTFGQESMYWVRQAPGKGLEWVSAISGSGGSTYYADSVKGRFTISRDNSKNTLYLQMNSLRAEDTAVYYCAKSGTRIKQGFDYWGQGTLVTVSS
max % inhibition, Average (Human IL-11 release, h1) [1]: 79%
max % inhibition, Average (Mouse 3T3 cell assay, method m1) [2]: 78.6%
